*1 amine or outer side, *2 acyl side, *3 side chain or, on linkers, in order; H or OH if unused. Bridges are numbered along the chain shown (N, C = ends). Primed or numbered codes have the meaning given here. [ ]: non-standard residue; d: D form. IPegDab = L-2-amino-4{2-[2-(2-methoxy-ethoxy)-ethoxy]-acetylamino}-butyric acid, COCCOCCOCC(=O)NCC[C@H](N[*:1])C(=O)[*:2]; N(2-Aminoethyl)Gly = O=C(CN(CCN[*:3])[*:1])[*:2]; 2Nal = N[C@@H](Cc1ccc2ccccc2c1)C(=O)O; Cit = NC(=O)NCCC[C@H](N)C(=O)O; Dab = NCC[C@H](N)C(=O)O; Pip′ = not defined here
B1: Example 138 (peptide)
peptide: cyclo(YR[Cit]C[N(2-Aminoethyl)Gly]G[dP]RR[2Nal]CY[Cit]K[dP]P)
modifications: disulfide 4-11
SMILES: N=C(N)NCCC[C@@H]1NC(=O)[C@H](CCCNC(=N)N)NC(=O)[C@H]2CCCN2C(=O)CNC(=O)CN(CCN)C(=O)[C@@H]2CSSC[C@H](NC(=O)[C@H](Cc3ccc4ccccc4c3)NC1=O)C(=O)N[C@@H](Cc1ccc(O)cc1)C(=O)N[C@@H](CCCNC(N)=O)C(=O)N[C@@H](CCCCN)C(=O)N1CCC[C@@H]1C(=O)N1CCC[C@H]1C(=O)N[C@@H](Cc1ccc(O)cc1)C(=O)N[C@@H](CCCNC(=N)N)C(=O)N[C@@H](CCCNC(N)=O)C(=O)N2
B2: Example 142 (peptide)
peptide: cyclo(YR[Cit]CRG[dP][IPegDab]RWCY[Cit]K[dP]P)
modifications: disulfide 4-11
SMILES: COCCOCCOCC(=O)NCC[C@@H]1NC(=O)[C@H]2CCCN2C(=O)CNC(=O)[C@H](CCCNC(=N)N)NC(=O)[C@@H]2CSSC[C@H](NC(=O)[C@H](Cc3c[nH]c4ccccc34)NC(=O)[C@H](CCCNC(=N)N)NC1=O)C(=O)N[C@@H](Cc1ccc(O)cc1)C(=O)N[C@@H](CCCNC(N)=O)C(=O)N[C@@H](CCCCN)C(=O)N1CCC[C@@H]1C(=O)N1CCC[C@H]1C(=O)N[C@@H](Cc1ccc(O)cc1)C(=O)N[C@@H](CCCNC(=N)N)C(=O)N[C@@H](CCCNC(N)=O)C(=O)N2
B3: Example 143 (peptide)
peptide: cyclo(YR[Cit]CRA[dP]RRWCY[Cit]K[dP]P)
modifications: disulfide 4-11
SMILES: C[C@@H]1NC(=O)[C@H](CCCNC(=N)N)NC(=O)[C@@H]2CSSC[C@H](NC(=O)[C@H](Cc3c[nH]c4ccccc34)NC(=O)[C@H](CCCNC(=N)N)NC(=O)[C@H](CCCNC(=N)N)NC(=O)[C@H]3CCCN3C1=O)C(=O)N[C@@H](Cc1ccc(O)cc1)C(=O)N[C@@H](CCCNC(N)=O)C(=O)N[C@@H](CCCCN)C(=O)N1CCC[C@@H]1C(=O)N1CCC[C@H]1C(=O)N[C@@H](Cc1ccc(O)cc1)C(=O)N[C@@H](CCCNC(=N)N)C(=O)N[C@@H](CCCNC(N)=O)C(=O)N2
B4: Example 144 (peptide)
peptide: cyclo(LR[Cit]CRG[dP]RR[2Nal]CYQK[dP]P)
modifications: disulfide 4-11
SMILES: CC(C)C[C@@H]1NC(=O)[C@@H]2CCCN2C(=O)[C@H]2CCCN2C(=O)[C@H](CCCCN)NC(=O)[C@H](CCC(N)=O)NC(=O)[C@H](Cc2ccc(O)cc2)NC(=O)[C@@H]2CSSC[C@H](NC(=O)[C@H](CCCNC(N)=O)NC(=O)[C@H](CCCNC(=N)N)NC1=O)C(=O)N[C@@H](CCCNC(=N)N)C(=O)NCC(=O)N1CCC[C@@H]1C(=O)N[C@@H](CCCNC(=N)N)C(=O)N[C@@H](CCCNC(=N)N)C(=O)N[C@@H](Cc1ccc3ccccc3c1)C(=O)N2
B5: Example 145 (peptide)
peptide: cyclo(YRTCRG[dP]RRYCYQK[dP]P)
modifications: disulfide 4-11
SMILES: C[C@@H](O)[C@@H]1NC(=O)[C@H](CCCNC(=N)N)NC(=O)[C@H](Cc2ccc(O)cc2)NC(=O)[C@@H]2CCCN2C(=O)[C@H]2CCCN2C(=O)[C@H](CCCCN)NC(=O)[C@H](CCC(N)=O)NC(=O)[C@H](Cc2ccc(O)cc2)NC(=O)[C@@H]2CSSC[C@H](NC1=O)C(=O)N[C@@H](CCCNC(=N)N)C(=O)NCC(=O)N1CCC[C@@H]1C(=O)N[C@@H](CCCNC(=N)N)C(=O)N[C@@H](CCCNC(=N)N)C(=O)N[C@@H](Cc1ccc(O)cc1)C(=O)N2
B6: Example 25 (peptide)
peptide: cyclo(YR[Cit]VR[Cit][dP]RR[2Nal]VY[Cit]K[dP]P)
SMILES: CC(C)[C@@H]1NC(=O)[C@H](Cc2ccc3ccccc3c2)NC(=O)[C@H](CCCNC(=N)N)NC(=O)[C@H](CCCNC(=N)N)NC(=O)[C@H]2CCCN2C(=O)[C@H](CCCNC(N)=O)NC(=O)[C@H](CCCNC(=N)N)NC(=O)[C@H](C(C)C)NC(=O)[C@H](CCCNC(N)=O)NC(=O)[C@H](CCCNC(=N)N)NC(=O)[C@H](Cc2ccc(O)cc2)NC(=O)[C@@H]2CCCN2C(=O)[C@H]2CCCN2C(=O)[C@H](CCCCN)NC(=O)[C@H](CCCNC(N)=O)NC(=O)[C@H](Cc2ccc(O)cc2)NC1=O
B7: Example 146 (peptide)
peptide: cyclo(YRTCRG[dP]RRYCY[Cit]K[dP]P)
modifications: disulfide 4-11
SMILES: C[C@@H](O)[C@@H]1NC(=O)[C@H](CCCNC(=N)N)NC(=O)[C@H](Cc2ccc(O)cc2)NC(=O)[C@@H]2CCCN2C(=O)[C@H]2CCCN2C(=O)[C@H](CCCCN)NC(=O)[C@H](CCCNC(N)=O)NC(=O)[C@H](Cc2ccc(O)cc2)NC(=O)[C@@H]2CSSC[C@H](NC1=O)C(=O)N[C@@H](CCCNC(=N)N)C(=O)NCC(=O)N1CCC[C@@H]1C(=O)N[C@@H](CCCNC(=N)N)C(=O)N[C@@H](CCCNC(=N)N)C(=O)N[C@@H](Cc1ccc(O)cc1)C(=O)N2
B8: Example 147 (peptide)
peptide: cyclo(YRICRG[dP]RRYCYQK[dP]P)
modifications: disulfide 4-11
SMILES: CC[C@H](C)[C@@H]1NC(=O)[C@H](CCCNC(=N)N)NC(=O)[C@H](Cc2ccc(O)cc2)NC(=O)[C@@H]2CCCN2C(=O)[C@H]2CCCN2C(=O)[C@H](CCCCN)NC(=O)[C@H](CCC(N)=O)NC(=O)[C@H](Cc2ccc(O)cc2)NC(=O)[C@@H]2CSSC[C@H](NC1=O)C(=O)N[C@@H](CCCNC(=N)N)C(=O)NCC(=O)N1CCC[C@@H]1C(=O)N[C@@H](CCCNC(=N)N)C(=O)N[C@@H](CCCNC(=N)N)C(=O)N[C@@H](Cc1ccc(O)cc1)C(=O)N2
B9: Example 148 (peptide)
peptide: cyclo(YRYCRG[dP]RRYCYQK[dP]P)
modifications: disulfide 4-11
SMILES: N=C(N)NCCC[C@@H]1NC(=O)[C@@H]2CSSC[C@H](NC(=O)[C@H](Cc3ccc(O)cc3)NC(=O)[C@H](CCCNC(=N)N)NC(=O)[C@H](CCCNC(=N)N)NC(=O)[C@H]3CCCN3C(=O)CNC1=O)C(=O)N[C@@H](Cc1ccc(O)cc1)C(=O)N[C@@H](CCC(N)=O)C(=O)N[C@@H](CCCCN)C(=O)N1CCC[C@@H]1C(=O)N1CCC[C@H]1C(=O)N[C@@H](Cc1ccc(O)cc1)C(=O)N[C@@H](CCCNC(=N)N)C(=O)N[C@@H](Cc1ccc(O)cc1)C(=O)N2
B10: Example 149 (peptide)
peptide: cyclo(YR[Cit]CRG[dP]RRYCYQK[dQ]P)
modifications: disulfide 4-11
SMILES: N=C(N)NCCC[C@@H]1NC(=O)[C@@H]2CSSC[C@H](NC(=O)[C@H](Cc3ccc(O)cc3)NC(=O)[C@H](CCCNC(=N)N)NC(=O)[C@H](CCCNC(=N)N)NC(=O)[C@H]3CCCN3C(=O)CNC1=O)C(=O)N[C@@H](Cc1ccc(O)cc1)C(=O)N[C@@H](CCC(N)=O)C(=O)N[C@@H](CCCCN)C(=O)N[C@H](CCC(N)=O)C(=O)N1CCC[C@H]1C(=O)N[C@@H](Cc1ccc(O)cc1)C(=O)N[C@@H](CCCNC(=N)N)C(=O)N[C@@H](CCCNC(N)=O)C(=O)N2
B11: Example 151 (peptide)
peptide: cyclo(YR[Cit]SRG[dP]RRWNY[Cit]K[dP]P)
SMILES: N=C(N)NCCC[C@@H]1NC(=O)[C@H](CO)NC(=O)[C@H](CCCNC(N)=O)NC(=O)[C@H](CCCNC(=N)N)NC(=O)[C@H](Cc2ccc(O)cc2)NC(=O)[C@@H]2CCCN2C(=O)[C@H]2CCCN2C(=O)[C@H](CCCCN)NC(=O)[C@H](CCCNC(N)=O)NC(=O)[C@H](Cc2ccc(O)cc2)NC(=O)[C@H](CC(N)=O)NC(=O)[C@H](Cc2c[nH]c3ccccc23)NC(=O)[C@H](CCCNC(=N)N)NC(=O)[C@H](CCCNC(=N)N)NC(=O)[C@H]2CCCN2C(=O)CNC1=O
B12: Example 152 (peptide)
peptide: cyclo(YR[Cit][Dab]RG[dP]RRWEY[Cit]K[dP]P)
modifications: lactam 4-11
SMILES: N=C(N)NCCC[C@@H]1NC(=O)[C@@H]2CCNC(=O)CC[C@H](NC(=O)[C@H](Cc3c[nH]c4ccccc34)NC(=O)[C@H](CCCNC(=N)N)NC(=O)[C@H](CCCNC(=N)N)NC(=O)[C@H]3CCCN3C(=O)CNC1=O)C(=O)N[C@@H](Cc1ccc(O)cc1)C(=O)N[C@@H](CCCNC(N)=O)C(=O)N[C@@H](CCCCN)C(=O)N1CCC[C@@H]1C(=O)N1CCC[C@H]1C(=O)N[C@@H](Cc1ccc(O)cc1)C(=O)N[C@@H](CCCNC(=N)N)C(=O)N[C@@H](CCCNC(N)=O)C(=O)N2
B13: Example 153 (peptide)
peptide: cyclo(YR[Cit]ERG[dP]RRW[Dab]Y[Cit]K[dP]P)
modifications: lactam 4-11
SMILES: N=C(N)NCCC[C@@H]1NC(=O)[C@@H]2CCC(=O)NCC[C@H](NC(=O)[C@H](Cc3c[nH]c4ccccc34)NC(=O)[C@H](CCCNC(=N)N)NC(=O)[C@H](CCCNC(=N)N)NC(=O)[C@H]3CCCN3C(=O)CNC1=O)C(=O)N[C@@H](Cc1ccc(O)cc1)C(=O)N[C@@H](CCCNC(N)=O)C(=O)N[C@@H](CCCCN)C(=O)N1CCC[C@@H]1C(=O)N1CCC[C@H]1C(=O)N[C@@H](Cc1ccc(O)cc1)C(=O)N[C@@H](CCCNC(=N)N)C(=O)N[C@@H](CCCNC(N)=O)C(=O)N2

target: human CXCR4 (human, UniProt P61073 1-352); assay: cell-based or functional assay
Sequence (P61073 whole entry): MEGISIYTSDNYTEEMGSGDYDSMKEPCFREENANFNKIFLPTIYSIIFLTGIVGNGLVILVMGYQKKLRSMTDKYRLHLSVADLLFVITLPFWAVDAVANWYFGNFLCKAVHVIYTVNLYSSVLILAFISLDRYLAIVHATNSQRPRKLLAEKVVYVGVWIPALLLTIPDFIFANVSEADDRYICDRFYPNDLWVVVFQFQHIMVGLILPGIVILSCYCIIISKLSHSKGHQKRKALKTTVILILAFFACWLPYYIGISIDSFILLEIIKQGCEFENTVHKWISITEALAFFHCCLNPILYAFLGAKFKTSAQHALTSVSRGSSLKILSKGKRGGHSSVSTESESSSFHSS

Row | Binder | IC50 (nM) Ca2+ assay (method 2) [nM] | IC50 (nM) Ca2+ assay (method 1) [nM]
1 | B1 | 63 | 
2 | B2 | 96.9 | 
3 | B3 | 0.9 | 
4 | B4 | 0.18 | 
5 | B5 | 0.38 | 
6 | B6 |  | 1000
7 | B7 | 0.24 | 
8 | B8 | 0.17 | 
9 | B9 | 0.65 | 
10 | B10 | 1 | 
11 | cyclo([Pip′]RYCYQK[dP]PYR[Cit]CRG[dP]) (disulfide 4-13) [Example 150] | 1.4 | 
12 | B11 | 4.2 | 
13 | B12 | 4.2 | 
14 | B13 | 21.9 | 
15 | cyclo(RR[2Nal]CY[Cit]KCYKGYCYR[Cit]CRG[dP]) (disulfide 8-13, 4-17) [Example 154] | 9.3 | 
16 | cyclo(RRWCYQKCYKGYCYR[Cit]CRG[dP]) (disulfide 8-13, 4-17) [Example 155] | 0.46 | 

From patent US20150087577A1 (POLYPHOR, published 2015)
